The values that follow come from article PMC2881812.

The stoichiometry N is a count of units in the complex or per binding partner.

The target of this test is p22(79-227) (T. brucei). Kind of test: SEC.

Substance p22(79-227) (domain or fragment) displayed a stoichiometry N of 3.
